Measurements from patent publication US20260167959A1, “APTAZYME-BASED REGULATABLE GENE EXPRESSION SYSTEMS” (REJUVENATE BIO INC, priority 2022, published 2026).

The molecules below were run on Renilla luciferase RNA (assay: Barcoded aptazyme variant library screen: un-cleaved Renilla luciferase RNA by barcode read counts, HEK293-T cells). Details: un-cleaved Renilla luciferase RNA, HEK293-T cells cultured with 1 mM theophylline (ON) over without theophylline (OFF); barcode read counts, triplicate.
Format: cell-based
In short: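 Aptazyme variants (seven theophylline aptamers inserted after each T3H48 ribozyme nucleotide, 9-nt barcoded) cloned into the 3′ UTR of Renilla luciferase in psiCHECK-2; cells cultured ± theophylline, in triplicate. RNA and DNA barcodes amplified and sequenced; normalized read counts gave un-cleaved RNA fraction and ON/OFF fold-change.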

| Molecule | Fold change in RNA expression between the ON state and the OFF state |
| --- | --- |
| RA205 (nucleic acid, expressed or natural sequence) DNA: GCGCGTCCTGGATTCGCGGAAACGCGTACATCCAGCTGACGAGTCCCAAATAGGACGAAACGCGGAATACCAGCATCGTCTTGATGCCCTTGGAAGTCCGC | 1.2 fold |
| RA216 (nucleic acid, expressed or natural sequence) DNA: GCGCGTCCTGGATTCGCGGAAACGCGTACATCCAGCTGACGAGTCAGTGATACCAGCATCGTCTTGATGCCCTTGGCAGCACTCCAAATAGGACGAAACGCGC | 1.2 fold |
| RA208 (nucleic acid, expressed or natural sequence) DNA: GCGCGTCCTGGATTCGCGGAAACGCGTACATCCAGCTGACGAGTCCCAAACCGGAATACCAGCATCGTCTTGATGCCCTTGGAAGTCCGGTAGGACGAAACGCGC | 1.2 fold |
| RA218 (nucleic acid, expressed or natural sequence) DNA: GCGCGTCCTGGATTCGCGGAAACGCGTACATCCAAGTGATACCAGCATCGTCTTGATGCCCTTGGCAGCACTGCTGACGAGTCCCAAATAGGACGAAACGCGC | 1.2 fold |
| RA230 (nucleic acid, expressed or natural sequence) DNA: GCGCGTCCTGAGAATACCAGCATCGTCTTGATGCCCTTGGAAGTCTCGGATTCGCGGAAACGCGTACATCCAGCTGACGAGTCCCAAATAGGACGAAACGCGC | 1.1 fold |
| RA228 (nucleic acid, chemistry not given here) DNA: GCGCGTCCTGGATTCGCGGAAACGCGTACATCCAGCTGGGAATACCAGCATCGTCTTGATGCCCTTGGAAGTCCACGAGTCCCAAATAGGACGAAACGCGC | 1.1 fold |
| RA227 (nucleic acid, expressed or natural sequence) DNA: GCGCGTCCGAGAATACCAGCATCGTCTTGATGCCCTTGGAAGTCTCGCTGGATTCGCGGAAACGCGTACATCCAGCTGACGAGTCCCAAATAGGACGAAACGCGC | 1.1 fold |
| RA211 (nucleic acid, expressed or natural sequence) DNA: GCGCGTCCTGGATTCGGGAATACCAGCATCGTCTTGATGCCCTTGGAAGTCCCGGAAACGCGTACATCCAGCTGACGAGTCCCAAATAGGACGAAACGCGC | 1.2 fold |
| RA221 (nucleic acid, expressed or natural sequence) DNA: GCGCGTCCTGGATTCGCGGAAACGCGTACATCCAGCTGACGGAATACCAGCATCGTCTTGATGCCCTTGGAAGTCCGCGAGTCCCAAATAGGACGAAACGCGC | 1.2 fold |
| RA226 (nucleic acid, expressed or natural sequence) DNA: GCGCGTCCTGGATTCGCGGAAACGCGTACATCCAGCTGAAGTGATACCAGCATCGTCTTGATGCCCTTGGCAGCACTCGAGTCCCAAATAGGACGAAACGCGC | 1.1 fold |
| RA206 (nucleic acid, expressed or natural sequence) DNA: GCGCGTCCTGGATTCGCCGGAATACCAGCATCGTCTTGATGCCCTTGGAAGTCCGGCGGAAACGCGTACATCCAGCTGACGAGTCCCAAATAGGACGAAACGCGC | 1.2 fold |
| RA203 (nucleic acid, expressed or natural sequence) DNA: GCGCGTCCTGGATTCGCGGAAACGCGTACATCCAGCTGACGAGTCCCAAATAGGAAGAATACCAGCATCGTCTTGATGCCCTTGGAAGTCTCGAAACGCGC | 1.2 fold |
| RA207 (nucleic acid, expressed or natural sequence) DNA: GCGCGTCCTGGATTCGCGGAAACGCGTACATCCAGCTGACGAGTCCCAAGAGAATACCAGCATCGTCTTGATGCCCTTGGAAGTCTCATAGGACGAAACGCGC | 1.2 fold |
| RA217 (nucleic acid, expressed or natural sequence) DNA: GCGCGTCCTGGATTCCGAGAATACCAGCATCGTCTTGATGCCCTTGGAAGTCTCGGCGGAAACGCGTACATCCAGCTGACGAGTCCCAAATAGGACGAAACGCGC | 1.2 fold |
| RA229 (nucleic acid, expressed or natural sequence) DNA: GCGCCGGAATACCAGCATCGTCTTGATGCCCTTGGAAGTCCGGCGTCCTGGATTCGCGGAAACGCGTACATCCAGCTGACGAGTCCCAAATAGGACGAAACGCGC | 1.1 fold |
| RA224 (nucleic acid, expressed or natural sequence) DNA: GCGCGTCCTGGATTCGCGGAAACGCGTACATCCAGCTGACGAGTCCCAAATAGAGAATACCAGCATCGTCTTGATGCCCTTGGAAGTCTGACGAAACGCGC | 1.1 fold |
| RA214 (nucleic acid, expressed or natural sequence) DNA: GCGCGTCCTGGATTCGCGAGAATACCAGCATCGTCTTGATGCCCTTGGAAGTCTCGGAAACGCGTACATCCAGCTGACGAGTCCCAAATAGGACGAAACGCGC | 1.2 fold |
| RA213 (nucleic acid, expressed or natural sequence) DNA: GCGCGTCCTGGATTCGCGGAAACGCGTACATCCAGCTCGAGAATACCAGCATCGTCTTGATGCCCTTGGAAGTCTCGGACGAGTCCCAAATAGGACGAAACGCGC | 1.2 fold |
| RA021 (nucleic acid, expressed or natural sequence) DNA: GCGCGTCCTGGATTCGCGGAAACGCGTACATCCAGCTGACGAGTCCCAAATAGAGTGATACCAGCATCGTCTTGATGCCCTTGGCAGCACTGACGAAACGCGC | 2.7 fold |
| RA223 (nucleic acid, expressed or natural sequence) DNA: GCGCGTCCTGCGAGAATACCAGCATCGTCTTGATGCCCTTGGAAGTCTCGGATTCGCGGAAACGCGTACATCCAGCTGACGAGTCCCAAATAGGACGAAACGCGC | 1.2 fold |
| RA022 (nucleic acid, expressed or natural sequence) DNA: GCGCGTCCTGGATTCGCGGAAACGCGTACAAGTGATACCAGCATCGTCTTGATGCCCTTGGCAGCACTTCCAGCTGACGAGTCCCAAATAGGACGAAACGCGC | 2.6 fold |
| RA209 (nucleic acid, expressed or natural sequence) DNA: GCGCGTCCTGGATTCGCGGAGAGAATACCAGCATCGTCTTGATGCCCTTGGAAGTCTCAACGCGTACATCCAGCTGACGAGTCCCAAATAGGACGAAACGCGC | 1.2 fold |
| RA219 (nucleic acid, expressed or natural sequence) DNA: GCGCGTCCTGGATTCGCGGAAACGCGTACATCCAGCGGAATACCAGCATCGTCTTGATGCCCTTGGAAGTCCTGACGAGTCCCAAATAGGACGAAACGCGC | 1.2 fold |
| RA212 (nucleic acid, expressed or natural sequence) DNA: GCGCGTCCTGGATTCAGAATACCAGCATCGTCTTGATGCCCTTGGAAGTCTGCGGAAACGCGTACATCCAGCTGACGAGTCCCAAATAGGACGAAACGCGC | 1.2 fold |
| RA222 (nucleic acid, expressed or natural sequence) DNA: GCGCGTCCTGGATTCGCGGAAACGCGTACATCCAGCTGACAGAATACCAGCATCGTCTTGATGCCCTTGGAAGTCTGAGTCCCAAATAGGACGAAACGCGC | 1.2 fold |
| RA220 (nucleic acid, expressed or natural sequence) DNA: GCCGAGAATACCAGCATCGTCTTGATGCCCTTGGAAGTCTCGGCGTCCTGGATTCGCGGAAACGCGTACATCCAGCTGACGAGTCCCAAATAGGACGAAACGCGC | 1.2 fold |
| RA225 (nucleic acid, expressed or natural sequence) DNA: GCGCGTCCTGGATTCGCGGAAACGCGTACATCCAGCTGACGAGTCCCAAATAAGAATACCAGCATCGTCTTGATGCCCTTGGAAGTCTGGACGAAACGCGC | 1.1 fold |
| RA020 (nucleic acid, expressed or natural sequence) DNA: GCGCGTCCTGGATTCGCGGAAACGCGTACATCGGAATACCAGCATCGTCTTGATGCCCTTGGAAGTCCGCCAGCTGACGAGTCCCAAATAGGACGAAACGCGC | 2.7 fold |
| RA204 (nucleic acid, expressed or natural sequence) DNA: GCGCGTCCCGGAATACCAGCATCGTCTTGATGCCCTTGGAAGTCCGTGGATTCGCGGAAACGCGTACATCCAGCTGACGAGTCCCAAATAGGACGAAACGCGC | 1.2 fold |
